Positions of bridges follow the written chain, without caps; N, C: chain ends. No end group written: not given here.
What follows are binders tested against T1, hu-IL-2Rβ subunit (human, UniProt P14784 27-240, limits assumed) (assay: phage ELISA competition assay).
T1 construct: also called human interleukin-2 receptor subunit β; CD122
T1 sequence (looked up): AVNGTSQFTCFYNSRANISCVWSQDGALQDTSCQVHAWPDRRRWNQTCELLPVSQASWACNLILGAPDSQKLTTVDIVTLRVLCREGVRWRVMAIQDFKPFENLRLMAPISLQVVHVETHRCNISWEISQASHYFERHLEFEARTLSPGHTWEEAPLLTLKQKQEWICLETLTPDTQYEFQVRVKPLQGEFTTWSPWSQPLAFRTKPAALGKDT

IC50, < 100 µM:
KGSWQPCWFAKLGELCDLHPTS [SEQ ID NO 433]
ERRWYPCWLASVGELCDLDMGD [SEQ ID NO 461]
RWDYWPCYIAQVGELCDLEVYE [SEQ ID NO 463]
QNASKGWYPCWIAHVGELCDWD [SEQ ID NO 465]
TGEWWPCWVAEVGELCDLERGP (not fully specified (bridges); cysteine pairing not given here) [SEQ ID NO 441]
SGKTQMWNPCYVAKVGELCDLV [SEQ ID NO 482]
QTWYLPCWMAKLGELCDLGERD [SEQ ID NO 434]
WWPCWIAQVGELCDLDGPGRPT (disulfide 4-13 (inferred)) [SEQ ID NO 437]
EWFHDCFLAKVGDLCDLFLW [SEQ ID NO 481]
KWFHDCFLAKVGDLCDLFLW [SEQ ID NO 533]
ARTQGWYDCLFAQVGELCDL [SEQ ID NO 442]
MFRYYPCWIASIGELCDLEWGV [SEQ ID NO 460]
WWPCDFAQIGELCDLGPRFTGE [SEQ ID NO 477]
GRQQKGWYPCWLAQLGELCDME [SEQ ID NO 107]
WWPCWIADLGELCDLEGPPRGR [SEQ ID NO 453]
WFPCWMAKVGDLCDVDEHQDPS [SEQ ID NO 458]
AEYSGRYDCYIAKVGELCDI [SEQ ID NO 445]
FYPCWIAFVGELCDLE [SEQ ID NO 467]
AWDWYPCSVAALGEICDLDIQD [SEQ ID NO 430]
WEKLQNWYPCWIAQMGELCDLE (not fully specified (bridges); cysteine pairing not given here) [SEQ ID NO 470]
MGDSSSWFPCWMAQLGELCDME [SEQ ID NO 459]
SYMHDCFMAQVGDLCDRFIS [SEQ ID NO 450]
CYMHDCFMAQVGDLCDRFIS [SEQ ID NO 497]
AQVWYPCWLAKVGELCDLDQWN [SEQ ID NO 456]
WWPCWIAQVGELCDLEEESRES [SEQ ID NO 451]
WWPCWVAKLGELCDLEGDASRV [SEQ ID NO 448]
HRWYPCWLAHLGELCDLDPMS [SEQ ID NO 466]
EGHWYPCWIAQLGELCDLDW [SEQ ID NO 468]
VPRANAWHPCWMAQLGELCDLE [SEQ ID NO 106]
WGGRYWCWMAKLGDLCDLEDEW [SEQ ID NO 436]
WRILWMQQCWRSHVVNQCAL (not fully specified (bridges); cysteine pairing not given here) [SEQ ID NO 439]
LQIRKLWACRIDLVGPFCLL [SEQ ID NO 444]
WYPCWIAQVGELCDLDEVSHGR [SEQ ID NO 440]
RPPWYPCWMARLGEVCDMDIML [SEQ ID NO 431]
RDWWLPCEFALIGELCDLERSW [SEQ ID NO 478]
SWRFLWQDCGRAHVGELCDL [SEQ ID NO 446]
WWPCEIAQIGELCDLEWVRHAE [SEQ ID NO 476]
EISNWFLDCMFADVGDLCDL [SEQ ID NO 455]
RLVYDCLFAQVGDLCEVIS [SEQ ID NO 438]
SWHAETWYPCWLAQVGELCDLD [SEQ ID NO 480]
SQRWYPCWVAHLGELCDLEGVV [SEQ ID NO 432]
WLNRHLFNPCWMARLGELCDLE [SEQ ID NO 108]
AQVRREWYPCWMAQLGELCDLT (disulfide 10-19 (inferred)) [SEQ ID NO 109]
NDHTAWWPCYFAQVGDLCDLV [SEQ ID NO 475]
WYPCEFAQLGELCDLLPFPYPA [SEQ ID NO 449]
EPRWYPCWMAQMGELCDMEMSD [SEQ ID NO 435]
SLAHRSWYPCWLAQVGELCDLD [SEQ ID NO 464]
AYYPCELAQLGELCDLYNI [SEQ ID NO 473]
WYPCWMALLGELCDQE [SEQ ID NO 81]
NRWWHPCWMARVGELCDLEPDA [SEQ ID NO 447]
TNGVLDWWPCWMAQVGELCDLD (not fully specified (bridges); cysteine pairing not given here) [SEQ ID NO 471]
FHPCWRALLGELCDLETALGPS [SEQ ID NO 443]
WTGWSAFYPCSIANLGELCDLD [SEQ ID NO 469]
MRTTFWYDCYIAQVGELCDF (not fully specified (bridges); cysteine pairing not given here) [SEQ ID NO 479]
PTLITWYDCLFAEVGELCDM [SEQ ID NO 454]
KWAWNPCYIARLGELCDLVEPE [SEQ ID NO 452]
FGGKMDWYPCWIANLGELCDLK [SEQ ID NO 457]
WGRKEQWLPCWKAQLGELCDLE [SEQ ID NO 105]

Source: US20240101959A1, “USE OF IL-2R-BETA-GAMMA AGONIST PEPTIDES IN CELL MANUFACTURING” (MEDIKINE, INC., priority 2022, published 2024)
